IntAct's records for PubMed 19933576

B1: Prelamin-A/C (Homo sapiens), P02545 (parent)
chain: METPSQRRATRSGAQASSTPLSPTRITRLQEKEDLQELNDRLAVYIDRVRSLETENAGLRLRITESEEVVSREVSGIKAAYEAELGDARKTLDSVAKERARLQLELSKVREEFKELKARNTKKEGDLIAAQARLKDLEALLNSKEAALSTALSEKRTLEGELHDLRGQVAKLEAALGEAKKQLQDEMLRRVDAENRLQTMKEELDFQKNIYSEELRETKRRHETRLVEIDNGKQREFESRLADALQELRAQHEDQVEQYKKELEKTYSAKLDNARQSAERNSNLVGAAHEELQQSRIRIDSLSAQLSQLQKQLAAKEAKLRDLEDSLARERDTSRRLLAEKEREMAEMRARMQQQLDEYQELLDIKLALDMEIHAYRKLLEGEEERLRLSPSPTSQRSRGRASSHSSQTQGGGSVTKKRKLESTESRSSFSQHARTSGRVAVEEVDEEGKFVRLRNKSNEDQSMGNWQIKRQNGDDPLLTYRFPPKFTLKAGQVVTIWAAGAGATHSPPTDLVWKAQNTWGCGNSLRTALINSTGEEVAMRKLVRSVTVVEDDEDEDGDDLLHHHHGSHCSSSGDPAEYNLRSRTVLCGTCGQPADKASASGSGAQVGGPISSGSSASSVTVTRSYRSVGGSGGGSFGDNLVTRSYLLGNSSPRTQSPQNCSIM
partner: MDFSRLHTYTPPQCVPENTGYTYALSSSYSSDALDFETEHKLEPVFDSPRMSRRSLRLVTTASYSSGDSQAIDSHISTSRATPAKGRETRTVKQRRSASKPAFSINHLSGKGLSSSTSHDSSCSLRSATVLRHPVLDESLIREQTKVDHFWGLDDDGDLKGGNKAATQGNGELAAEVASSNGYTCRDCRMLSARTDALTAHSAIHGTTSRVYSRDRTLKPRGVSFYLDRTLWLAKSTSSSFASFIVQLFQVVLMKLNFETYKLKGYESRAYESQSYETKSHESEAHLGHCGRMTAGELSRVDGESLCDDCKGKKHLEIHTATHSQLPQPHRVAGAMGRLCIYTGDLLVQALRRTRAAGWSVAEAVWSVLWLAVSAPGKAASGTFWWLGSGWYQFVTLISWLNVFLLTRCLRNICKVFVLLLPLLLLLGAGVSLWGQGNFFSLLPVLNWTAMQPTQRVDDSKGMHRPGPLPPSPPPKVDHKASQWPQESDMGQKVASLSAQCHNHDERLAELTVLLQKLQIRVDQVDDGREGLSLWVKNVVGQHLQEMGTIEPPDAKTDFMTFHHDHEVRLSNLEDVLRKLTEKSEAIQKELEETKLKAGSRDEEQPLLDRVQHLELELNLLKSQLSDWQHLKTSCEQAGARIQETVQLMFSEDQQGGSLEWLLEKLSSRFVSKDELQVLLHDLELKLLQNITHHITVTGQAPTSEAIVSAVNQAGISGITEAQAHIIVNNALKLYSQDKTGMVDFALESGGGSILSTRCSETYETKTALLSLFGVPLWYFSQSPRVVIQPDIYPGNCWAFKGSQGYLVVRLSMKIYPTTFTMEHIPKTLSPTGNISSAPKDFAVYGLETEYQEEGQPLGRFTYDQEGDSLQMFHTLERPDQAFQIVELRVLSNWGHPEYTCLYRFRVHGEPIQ

Variants of: B1
Conditions: with sun1_mouse Sun1, Q9D666

Variant | effect of a mutation on the interaction
R527P | disrupting interaction
L530P | disrupting interaction
